According to patent publication US20120135923A1, “Use of Melanocortins to Treat Dyslipidemia” (IPSEN PHARMA, S.A.S., priority 2009, published 2012):

Assays:
[1] = biological target: hMC1-R (human) (UniProt Q01726); assay: ratio Ki hMC1-R / Ki hMC4-R, same assay
[2] = biological target: hMC4-R (human) (UniProt P32245); assay: competition with [125I]-NDP-α-MSH, CHO-K1 membranes
[3] = biological target: hMC3-R (human) (UniProt P41968); assay: as above
[4] = biological target: hMC1-R (human) (UniProt Q01726); assay: as above
[5] = biological target: hMC5-R (human) (UniProt P33032); assay: as above
[6] = biological target: human melanocortin receptor subtype 3 (hMC3-R) (human) (UniProt P41968); assay: [125I]-NDP-α-MSH competition, membranes
[7] = biological target: human melanocortin receptor subtype 5 (hMC5-R) (human) (UniProt P33032); assay: [125I]-NDP-α-MSH competition, membranes
[8] = biological target: human melanocortin receptor subtype 4 (hMC4-R) (human) (UniProt P32245); assay: [125I]-NDP-α-MSH competition, membranes
[9] = biological target: human melanocortin receptor subtype 1 (hMC1-R) (human) (UniProt Q01726); assay: [125I]-NDP-α-MSH competition, membranes
[10] = biological target: hMC5-R (human) (UniProt P33032); assay: cell-based or functional assay

Chain of human melanocortin receptor subtype 5 (hMC5-R) (human) (P33032 whole entry): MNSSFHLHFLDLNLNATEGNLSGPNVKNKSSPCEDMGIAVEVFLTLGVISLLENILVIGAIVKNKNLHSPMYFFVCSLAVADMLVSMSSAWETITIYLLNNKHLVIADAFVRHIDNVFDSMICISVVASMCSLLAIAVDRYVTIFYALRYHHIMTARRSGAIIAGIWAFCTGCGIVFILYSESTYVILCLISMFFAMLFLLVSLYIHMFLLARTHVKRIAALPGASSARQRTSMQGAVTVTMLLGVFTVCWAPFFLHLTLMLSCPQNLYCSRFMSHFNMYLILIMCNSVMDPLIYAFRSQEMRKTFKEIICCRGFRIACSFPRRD
Chain of hMC5-R (human) (P33032 whole entry): as above
Chain of hMC1-R (human) (Q01726 whole entry): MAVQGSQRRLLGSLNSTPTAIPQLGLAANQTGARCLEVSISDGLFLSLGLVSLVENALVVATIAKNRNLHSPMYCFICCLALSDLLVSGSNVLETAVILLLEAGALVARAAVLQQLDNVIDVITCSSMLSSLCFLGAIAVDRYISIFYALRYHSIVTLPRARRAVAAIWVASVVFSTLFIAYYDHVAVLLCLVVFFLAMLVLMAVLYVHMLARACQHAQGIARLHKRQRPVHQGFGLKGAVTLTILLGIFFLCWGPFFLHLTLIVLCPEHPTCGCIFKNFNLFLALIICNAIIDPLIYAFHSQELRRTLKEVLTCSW
Chain of human melanocortin receptor subtype 1 (hMC1-R) (human) (Q01726 whole entry): as above
Chain of hMC3-R (human) (P41968 whole entry): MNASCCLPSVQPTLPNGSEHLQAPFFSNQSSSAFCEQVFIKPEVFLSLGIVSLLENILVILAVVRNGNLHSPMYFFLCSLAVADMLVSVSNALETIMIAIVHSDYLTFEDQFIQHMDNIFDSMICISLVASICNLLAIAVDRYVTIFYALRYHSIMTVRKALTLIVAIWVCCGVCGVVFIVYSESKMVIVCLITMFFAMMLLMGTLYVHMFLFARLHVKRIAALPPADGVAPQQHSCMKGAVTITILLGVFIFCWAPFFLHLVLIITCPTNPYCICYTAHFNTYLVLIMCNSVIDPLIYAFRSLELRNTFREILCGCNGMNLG
Chain of human melanocortin receptor subtype 3 (hMC3-R) (human) (P41968 whole entry): as above
Chain of hMC4-R (human) (P32245 whole entry): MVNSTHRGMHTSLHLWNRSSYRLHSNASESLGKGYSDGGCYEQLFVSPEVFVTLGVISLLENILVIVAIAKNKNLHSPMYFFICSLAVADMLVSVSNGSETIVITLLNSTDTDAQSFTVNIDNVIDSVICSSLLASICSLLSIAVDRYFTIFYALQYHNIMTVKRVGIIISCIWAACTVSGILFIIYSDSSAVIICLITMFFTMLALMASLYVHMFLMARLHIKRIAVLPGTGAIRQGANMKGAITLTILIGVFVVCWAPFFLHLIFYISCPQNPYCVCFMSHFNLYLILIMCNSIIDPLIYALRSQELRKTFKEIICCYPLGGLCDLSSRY
Chain of human melanocortin receptor subtype 4 (hMC4-R) (human) (P32245 whole entry): as above

| Substance | Ki hMC1-R/MC4-R [1] | Ki [2] | Ki [3] | Ki [4] | Ki [5] | Ki [6] | Ki [7] | Ki [8] | Ki [9] | cAMP EC50 [10] |
| --- | --- | --- | --- | --- | --- | --- | --- | --- | --- | --- |
| Ac-Cha-c(Asp-His-D-2-Nal-Arg-Trp-Gaba-Lys)-NH2 (peptide) | 0.2 | 2.82 nM | 3.98 nM | 0.576 nM | 3.91 nM |  |  |  |  |  |
| Ac-Nle-c(Cys-D-Ala-His-D-2-Nal-Arg-Bal-Cys)-NH2 (peptide) | 1.34 | 16.6 nM | 12.7 nM | 22.2 nM | 125 nM |  |  |  |  |  |
| D-Phe-c(Cys-His-D-(Et)Tyr-hArg-Trp-β-Ala-D-Cys)-Thr-NH2 (peptide) | 0 | 14.7 nM | 31.4 nM | 0.0567 nM | 9.27 nM |  |  |  |  |  |
| Hydantoin(C(O)-(D-Arg-Gly))-c(Cys-D-Ala-His-D-Phe-Arg-Trp-Cys)-NH2 (peptide) |  |  |  |  |  | 48.7 nM | 872 nM | 5.78 nM | 3.52 nM | 3950 nM |
| Hydantoin(C(O)-(D-Arg-Gly))-c(Cys-Glu-His-D-Phe-Arg-Trp-Cys)-NH2 (peptide) |  |  |  |  |  | 124 nM | 2260 nM | 2.95 nM | 9.49 nM | 2710 nM |
| Hydantoin(C(O)-(Gly-D-Arg))-c(Cys-Glu-His-D-Phe-Arg-Trp-Cys)-NH2 (peptide) |  |  |  |  |  | 78 nM | 4540 nM | 1.77 nM | 4.3 nM | 7440 nM |
